Data as given in patent US20140370558.

Key:
Assay in all cases: cell_activity
[1] = test system: FAD2_T02_Left_C40 TALEN monomer (synthetic (TAL effector-nuclease fusion)?); conditions: yeast reporter; value of pair with T01_Right_C40 on Target 2
[2] = test system: FAD2_T02_Left_C11 TALEN monomer (synthetic (TAL effector-nuclease fusion)?); conditions: yeast reporter; value of pair with T01_Right_C11 on Target 2
[3] = test system: FAD2_T03_Left_C11 + FAD2_T03_Right_C11 TALEN pair; conditions: yeast reporter cleavage
[4] = test system: FAD2_T02_Left_C11 + FAD2_T01_Right_C11 TALEN pair; conditions: yeast reporter cleavage
[5] = test system: FAD2_T01_Left_C11 + FAD2_T01_Right_C11 TALEN pair; conditions: yeast reporter cleavage
[6] = test system: FAD2_T03_Left_C40 + FAD2_T03_Right_C40 TALEN pair; conditions: yeast reporter cleavage
[7] = test system: FAD2_T04_Left_C11 + FAD2_T03_Right_C11 TALEN pair; conditions: yeast reporter cleavage
[8] = test system: FAD2_T04_Left_C40 + FAD2_T03_Right_C40 TALEN pair; conditions: yeast reporter cleavage
[9] = test system: FAD2_T02_Left_C40 + FAD2_T01_Right_C40 TALEN pair; conditions: yeast reporter cleavage
[10] = test system: FAD2_T01_Left_C40 + FAD2_T01_Right_C40 TALEN pair; conditions: yeast reporter cleavage
[11] = test system: FAD2_T03_Right_C40 TALEN monomer (synthetic (TAL effector-nuclease fusion)?); conditions: yeast reporter; value of pair with T03_Left_C40 on Target 3
[12] = test system: FAD2_T03_Right_C11 TALEN monomer (synthetic (TAL effector-nuclease fusion)?); conditions: yeast reporter; value of pair with T03_Left_C11 on Target 3
[13] = test system: FAD2_T01_Right_C11 TALEN monomer (synthetic (TAL effector-nuclease fusion)?); conditions: yeast reporter; value of pair with T01_Left_C11 on Target 1
[14] = test system: FAD2_T01_Right_C40 TALEN monomer (synthetic (TAL effector-nuclease fusion)?); conditions: yeast reporter; value of pair with T01_Left_C40 on Target 1
[15] = test system: FAD2_T04_Left_C40 TALEN monomer (synthetic (TAL effector-nuclease fusion)?); conditions: yeast reporter; value of pair with T03_Right_C40 on Target 4
[16] = test system: FAD2_T04_Left_C11 TALEN monomer (synthetic (TAL effector-nuclease fusion)?); conditions: yeast reporter; value of pair with T03_Right_C11 on Target 4
[17] = test system: FAD2_T03_Left_C11 TALEN monomer (synthetic (TAL effector-nuclease fusion)?); conditions: yeast reporter; value of pair with T03_Right_C11 on Target 3
[18] = test system: FAD2_T03_Left_C40 TALEN monomer (synthetic (TAL effector-nuclease fusion)?); conditions: yeast reporter; value of pair with T03_Right_C40 on Target 3
[19] = test system: FAD2_T01_Left_C40 TALEN monomer (synthetic (TAL effector-nuclease fusion)?); conditions: yeast reporter; value of pair with T01_Right_C40 on Target 1
[20] = test system: FAD2_T01_Left_C11 TALEN monomer (synthetic (TAL effector-nuclease fusion)?); conditions: yeast reporter; value of pair with T01_Right_C11 on Target 1
[21] = left site truncated in Target 3
[22] = left site truncated in Target 1

| Sequence | activity (relative to I-SceI) [3] | activity (relative to I-SceI) [4] | activity (relative to I-SceI) [5] | activity (relative to I-SceI) [6] | activity (relative to I-SceI) [7] | activity (relative to I-SceI) [8] | activity (relative to I-SceI) [9] | activity (relative to I-SceI) [10] | further results |
| --- | --- | --- | --- | --- | --- | --- | --- | --- | --- |
| ACATTGCCACCACCTACTTCCACCT (double strand) [FAD2_T02 left half-site] | – | – | – | – | – | – | – | – | activity (relative to I-SceI) [1]: 0.96; activity (relative to I-SceI) [2]: 0.97 |
| ACATTGCCACCACCTACTTCCACCTCCTTCCTCAACCCTTTTCCCTCATTGCATGGCCAATCT (double strand) [FAD2 Target 2] | 0 | 0.97 | 0.87 | 0 | 0 | 0 | 0.96 | 0.73 | – |
| ACCGTGATGAAGTGTTTGTCCC (double strand) [FAD2_T03/T04 right half-site] | – | – | – | – | – | – | – | – | activity (relative to I-SceI) [11]: 0.63; activity (relative to I-SceI) [12]: 0.65 |
| ATTGCATGGCCAATCT (double strand) [FAD2_T01/T02 right half-site] | – | – | – | – | – | – | – | – | activity (relative to I-SceI) [13]: 0.73; activity (relative to I-SceI) [14]: 0.79 |
| ATTTCTCATGGAAAATAAGCCAT (double strand) [FAD2_T04 left half-site] | – | – | – | – | – | – | – | – | activity (relative to I-SceI) [15]: 0.52; activity (relative to I-SceI) [16]: 0.54 |
| ATTTCTCATGGAAAATAAGCCATCGCCGCCATCACTCCAACACAGGTTCCCTTGACCGTGATGAAGTGTTTGTCCC (double strand) [FAD2 Target 4] | 0.53 | 0 | 0 | 0.51 | 0.54 | 0.52 | 0 | 0 | – |
| CTCATGGAAAATAAGCCAT (double strand) [FAD2_T03 left half-site] | – | – | – | – | – | – | – | – | activity (relative to I-SceI) [17]: 0.65; activity (relative to I-SceI) [18]: 0.63 |
| CTCATGGAAAATAAGCCATCGCCGCCATCACTCCAACACAGGTTCCCTTGACCGTGATGAAGTGTTTGTCCC (double strand) [FAD2 Target 3] | 0.65 | 0 | 0 | 0.63 | – | – | 0 | 0 | activity (relative to I-SceI) [7, 21]: 0; activity (relative to I-SceI) [8, 21]: 0 |
| GCCACCACCTACTTCCACCTCCT (double strand) [FAD2_T01 left half-site] | – | – | – | – | – | – | – | – | activity (relative to I-SceI) [19]: 0.79; activity (relative to I-SceI) [20]: 0.73 |
| GCCACCACCTACTTCCACCTCCTTCCTCAACCCTTTTCCCTCATTGCATGGCCAATCT (double strand) [FAD2 Target 1] | 0 | – | 0.73 | 0 | 0 | 0 | – | 0.79 | activity (relative to I-SceI) [4, 22]: 0; activity (relative to I-SceI) [9, 22]: 0 |
